B1: PyoS5_(1–196) (domain or fragment)
chain: MSNDNEVPGSMVIVAQGPDDQYAYEVPPIDSAAVAGNMFGDLIQREIYLQKNIYYPVRSIFEQGTKEKKEINKKVSDQVDGLLKQITQGKREATRQERVDVMSAVLHKMESDLEGYKKTFTKGPFIDYEKQSSLSIYEAWVKIWEKNSWEERKKYPFQQLVRDELERAVAYYKQDSLSEAVKVLRQELNKQKALKE
notes: source: E. coli BL21(DE3), purified (HisTrap HP, Superdex 200 SEC)
B2: PyoS5_(1–315) (domain or fragment)
chain: MSNDNEVPGSMVIVAQGPDDQYAYEVPPIDSAAVAGNMFGDLIQREIYLQKNIYYPVRSIFEQGTKEKKEINKKVSDQVDGLLKQITQGKREATRQERVDVMSAVLHKMESDLEGYKKTFTKGPFIDYEKQSSLSIYEAWVKIWEKNSWEERKKYPFQQLVRDELERAVAYYKQDSLSEAVKVLRQELNKQKALKEKEDLSQLERDYRTRKANLEMKVQSELDQAGSALPPLVSPTPEQWLERATRLVTQAIADKKQLQTTNNTLIKNSPTPLEKQKAIYNGELLVDEIASLQARLVKLNAETTRRRTEAERKAA
notes: as for B1
B3: PyoS5_(1–299) (domain or fragment)
chain: MSNDNEVPGSMVIVAQGPDDQYAYEVPPIDSAAVAGNMFGDLIQREIYLQKNIYYPVRSIFEQGTKEKKEINKKVSDQVDGLLKQITQGKREATRQERVDVMSAVLHKMESDLEGYKKTFTKGPFIDYEKQSSLSIYEAWVKIWEKNSWEERKKYPFQQLVRDELERAVAYYKQDSLSEAVKVLRQELNKQKALKEKEDLSQLERDYRTRKANLEMKVQSELDQAGSALPPLVSPTPEQWLERATRLVTQAIADKKQLQTTNNTLIKNSPTPLEKQKAIYNGELLVDEIASLQARLVKL
B4: Pyocin S5 (natural protein)
chain: MSNDNEVPGSMVIVAQGPDDQYAYEVPPIDSAAVAGNMFGDLIQREIYLQKNIYYPVRSIFEQGTKEKKEINKKVSDQVDGLLKQITQGKREATRQERVDVMSAVLHKMESDLEGYKKTFTKGPFIDYEKQSSLSIYEAWVKIWEKNSWEERKKYPFQQLVRDELERAVAYYKQDSLSEAVKVLRQELNKQKALKEKEDLSQLERDYRTRKANLEMKVQSELDQAGSALPPLVSPTPEQWLERATRLVTQAIADKKQLQTTNNTLIKNSPTPLEKQKAIYNGELLVDEIASLQARLVKLNAETTRRRTEAERKAAEEQALQDAIKFTADFYKEVTEKFGARTSEMARQLAEGARGKNIRSSAEAIKSFEKHKDALNKKLSLKDRQAIAKAFDSLDKQMMAKSLEKFSKGFGVVGKAIDAASLYQEFKISTETGDWKPFFVKIETLAAGAAASWLVGIAFATATATPIGILGFALVMAVTGAMIDEDLLEKANNLVISI
B5: ferric pyochelin transporter FptA (receptor)
chain: DARKDGETELPDMVISGESTSATQPPGVTTLGKVPLKPRELPQSASVIDHERLEQQNLFSLDEAMQQATGVTVQPFQLLTTAYYVRGFKVDSFELDGVPALLGNTASSPQDMAIYERVEILRGSNGLLHGTGNPAATVNLVRKRPQREFAASTTLSAGRWDRYRAEVDVGGPLSASGNVRGRAVAAYEDRDYFYDVADQGTRLLYGVTEFDLSPDTLLTVGAQYQHIDSITNMAGVPMAKDGSNLGLSRDTYLDVDWDRFKWDTYRAFGSLEQQLGGGWKGKVSAEYQEADSRLRYAGSFGAIDPQTGDGGQLMGAAYKFKSIQRSLDANLNGPVRLFGLTHELLGGVTYAQGETRQDTARFLNLPNTPVNVYRWDPHGVPRPQIGQYTSPGTTTTTQKGLYALGRIKLAEPLTLVVGGRESWWDQDTPATRFKPGRQFTPYGGLIWDFARDWSWYVSYAEVYQPQADRQTWNSEPLSPVEGKTYETGIKGELADGRLNLSLAAFRIDLENNPQEDPDHPGPPNNPFYISGGKVRSQGFELEGTGYLTPYWSLSAGYTYTSTEYLKDSQNDSGTRYSTFTPRHLLRLWSNYDLPWQDRRWSVGGGLQAQSDYSVDYRGVSMRQGGYALVNMRLGYKIDEHWTAAVNVNNLFDRTYYQSLSNPNWNNRYGEPRSFNVSLRGAF

Conditions in all cases: both partners purified
For experiment [1], the target named is B5. The experiment can be described thus: SPR. In general terms: In SPR one partner is held on a chip, and binding of the other changes the refractive index at the surface.
The target of experiment [2] is B5. As to the kind of experiment: native MS.
Another experiment deals with T1, PyoS5_(1–315) Δ10–13 (P. aeruginosa, UniProt Q9I4Y4 1-315, Δ10–13).
T1 construct: source: E. coli BL21(DE3), purified (HisTrap HP, Superdex 200 SEC)
As to the kind of experiment: SPR.

A further experiment addresses T2, PyoS5_(1–315) Δ2–39 (P. aeruginosa, UniProt Q9I4Y4 1-315, Δ2–39).
T2 construct: source: E. coli BL21(DE3), purified (HisTrap HP, Superdex 200 SEC)
The experiment can be described thus: SPR.

The target in the next experiment is T3, PyoS5_(1–315) Δ2–9 (P. aeruginosa, UniProt Q9I4Y4 1-315, Δ2–9).
T3 construct: source: E. coli BL21(DE3), purified (HisTrap HP, Superdex 200 SEC)
The experiment can be described thus: SPR.

We go through five molecules from paper PMC7064778 (mBio, 2020).

The term Kd denotes the free concentration of one partner at which half of the binding sites on the other are occupied at equilibrium, for simple one-to-one binding.

In the case of B1, the Kd in experiment [1] amounted to 7.1 ± 0.7 µM.

In turn, B2 yielded a Kd in experiment [1] of 6.5 ± 0.4 µM. B3: in experiment [2], the binding result is “binds”. B4: the binding result in experiment [2] was “binds”. As to B5, the binding result with PyoS5_(1–315) Δ10–13 and with PyoS5_(1–315) Δ2–9 was “binds” each time. For the same molecule, the affinity with PyoS5_(1–315) Δ2–39, expressed as Kd, was 14.7 ± 0.4 µM.
